Results on eight molecules are retold here after patent publication US20180185504A1 (Regeneron, published 2018).

Residue numbers refer to the chain shown, from its start. Names and notes keep the numbering of the source.

Sequences and labels used below:
T1: macaca fascicularis (mf) PRLR.mmh (soluble monomeric monkey PRLR) (Macaca fascicularis)
T1 construct: called soluble monomeric PRLR protein
T1 chain: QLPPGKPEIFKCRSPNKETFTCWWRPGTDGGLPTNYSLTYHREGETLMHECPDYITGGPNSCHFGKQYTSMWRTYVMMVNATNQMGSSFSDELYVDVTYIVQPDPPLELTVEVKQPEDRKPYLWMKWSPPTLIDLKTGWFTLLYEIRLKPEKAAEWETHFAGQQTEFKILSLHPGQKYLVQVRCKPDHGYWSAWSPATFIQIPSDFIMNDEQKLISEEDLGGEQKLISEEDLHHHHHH

T2: hPRLR.mFc (soluble dimeric human PRLR) (human)
T2 construct: dimeric PRLR construct
T2 chain: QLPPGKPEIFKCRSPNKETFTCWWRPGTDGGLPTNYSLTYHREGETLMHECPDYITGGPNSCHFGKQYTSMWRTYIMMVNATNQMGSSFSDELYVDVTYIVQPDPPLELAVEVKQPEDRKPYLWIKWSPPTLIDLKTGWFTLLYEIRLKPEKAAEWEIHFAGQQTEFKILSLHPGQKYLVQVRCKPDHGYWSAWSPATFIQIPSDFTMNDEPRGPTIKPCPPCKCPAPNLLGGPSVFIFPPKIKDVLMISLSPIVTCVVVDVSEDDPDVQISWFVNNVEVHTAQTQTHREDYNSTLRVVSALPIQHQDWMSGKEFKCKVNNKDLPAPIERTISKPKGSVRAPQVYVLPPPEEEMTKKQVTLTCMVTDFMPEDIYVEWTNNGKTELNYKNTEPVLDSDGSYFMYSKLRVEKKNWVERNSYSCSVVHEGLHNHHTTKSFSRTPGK

T3: hPRLR.mmh (soluble monomeric human PRLR) (human)
T3 construct: called soluble monomeric PRLR protein
T3 chain: T1 chain with V76I, T110A, M125I, T158I, I207T

B1: H1H6790P (antibody, human IgG1, V domains shown)
VH: EVQLVESGGGLVQPGGSLRLSCAASGFTFSSYAMTWVRQAPGKGLEWVSAITGSVGNTYYADSVKGRFTISRDNSKNTLYLQMNSLGAEDTAEYYCAKGAGMTTNWYLDLWGRGTLVTVSS
VL: DIVMTQSPDSLAVSLGARATINCKSSQSVLYSSNNQNYLTWYQQKPGQPPKLLIKWASTRESGVPDRFSGSGSGTDFTLTISSLQAEDVAVYYCQQYASSPYTFGQGTKLEIK
notes: Human IgG1 Fc (H1H)
B2: H1H6783P (antibody, human IgG1, V domains shown)
VH: QVQLQQSGPGLVKPSQTLSLTCAISGDSVSSNTFAWNWIRQSPSRGLEWLGRTYYRSKWYIDYAESVKSRITITPDTSKNQFSLQLNSVTPEDTALYYCAGGYTYAPRGAFDIWGQGTMVTVSS
VL: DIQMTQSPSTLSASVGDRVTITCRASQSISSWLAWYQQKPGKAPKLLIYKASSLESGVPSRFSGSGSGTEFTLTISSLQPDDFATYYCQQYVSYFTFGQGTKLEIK
notes: Human IgG1 Fc (H1H)
B3: H1H6793P (antibody, human IgG1, V domains shown)
VH: EVQLVESGGGLVQPGGSLRLSCAASGFSFSIYAMSWFRQAPGKGLEWVSAINGRGDGTHYADSVKGRFTISRDNSKTTLYLQMSSLRAEDTAVYYCAKPVMSTNGFDIWGQGTMVTVSS
VL: DIQMTQSPSTLSASVGDRVTITCRASQSISSWLAWYQLKPGKAPKLLIYKASNLESGVPSRFSGSGSGTEFTLTISSLQPDDFATYYCQQYNIYWTFGQGTKVEIK
notes: Human IgG1 Fc (H1H)
B4: H1H6792P (antibody, human IgG1, V domains shown)
VH: EVQLVESGGGLVQPGRSLRLSCAASGFTLDDHAVHWVRQAPGKGLEWVSGISWNSVYIDYADSVKGRFTIFRDNAKNSLYLQMNSLRAEDTAFYYCARDIEGARDYWGQGTLVTVSS
VL: DIQMTQSPSSLSASVGDRVTITCRASQGIRNDLGWYQQKPGKAPKRLIYAASSLQSGVPSRFSGSGYGTEFTLTISSLQPEDFAPYYCLQHNSYPLTFGGGTKVEIK
notes: Human IgG1 Fc (H1H)
B5: H1H6797P (antibody, human IgG1, V domains shown)
VH: EVQLVESGGGLVQPGGSLRLSCIVSGFTFSGSWMSWVRQLPGKGLEWVANIKEDGSDSYYVDSVEGRFTISRDNAKSSLYLQMNSLRVDDTAVYFCARARTVPLHYWGQGTLVTVSS
VL: DIQMTQSPSTLSASVGDRVTITCRASQSINIWLAWYQQKPGKAPKLLIYRASYLESGVPSSFAGGGSGTEFTLTISSLQPDDFGTYYCQHYNSYPFTFGQGTKLEIK
notes: Human IgG1 Fc (H1H)
B6: H1H6785P (antibody, human IgG1, V domains shown)
VH: EVQLVESGGGLVQPGGSLRLSCAASGFTFSSYEMNWVRQAPGKGLEWISYISSRGGTIYYADSIKGRFTIYRDNARNSLYLQMNSLRAEDTAIYYCARLSGVDIFDIWGQGTMVTVSS
VL: DIQMTQSPSSLSASVGDRVTITCRASQGISNYLAWYQQKPGKVPKLLIYFASTLQSGVPSRFSGGGSGTDFTLTISSLQPEDVATYYCQRYNSAPLTFGGGTKVEIK
notes: Human IgG1 Fc (H1H)
B7: H1H6782P (antibody, human IgG1, V domains shown)
VH: EVQLVESGGGLVQPGRSLRLSCAASGFTFDDYAMHWVRQAPGKGLEWVSGIIWNSGHIGYGDSVKGRFTISRDNAKKSLYLQMNSLRAEDTALYYCARDSGRYQSYFDYWGQGTLVTVSS
VL: DIQMTQSPSTLSASVGDRVTITCRASHIISSWLAWYQQKPGKAPKVLIFKASSLESGVPSRFSGSGSGTEFTLTISSLQPDDFATYYCQQYNTYSRTFGQGTKVEIK
notes: Human IgG1 Fc (H1H)
B8: H1H6795P (antibody, human IgG1, V domains shown)
VH: QVQLVQSGAEVKKPGASVKVSCKASGYTFGTSGITWVRQAPGQGLEWMGWSSAYNGKTDYAQKFQDRVTMTTDTSTTTGYMEMRSLTSDDTAVYYCTTVVRRPFDFWGQGTLVTVSS
VL: DIQMTQSPSSLSASVGDRVTITCRASQDINNFLAWFQQKPGKAPKSLIYAASSLQSGVPSKFSGGGSGTDFALTISSLQPEDFATYYCQQYSSYPITFGQGTRLEIK
notes: Human IgG1 Fc (H1H)

The first assay addresses T1, macaca fascicularis (mf) PRLR.mmh …. The experiment in a line: SPR Biacore, 25 C, mAb capture. How it is done:
(§1) Measurements were conducted on a T200 Biacore instrument. Kinetic association (kₐ) and dissociation (kd) rate constants were determined by processing and fitting the data to a 1:1 binding model using Scrubber 2.0 curve fitting software.
(In SPR one partner is held on a chip, and binding of the other changes the refractive index at the surface.)
B1: binding was characterised by a dissociation constant (Kd) of 2.04 nM; the T½ turned out to be 15 min; the koff – broadly, the rate constant with which the complex falls apart – amounted to 0.000793 s⁻¹; the kon – broadly, a measure of how fast the partners come together – was found to be 389000 M⁻¹ s⁻¹.
The matching figures for B2: 1.81 nM, 34 min, 0.000341 s⁻¹ and 189000 M⁻¹ s⁻¹.
Taken in the same sequence, the figures for B3 were 2.22 nM, 29 min, 0.000393 s⁻¹ and 177000 M⁻¹ s⁻¹.
The matching figures for B4: 4.17 nM, 12 min, 0.000983 s⁻¹ and 236000 M⁻¹ s⁻¹.
B5: binding was characterised by a dissociation constant (Kd) of 3.12 nM, the T½ is 6 min, the koff came out at 0.00209 s⁻¹ and the kon came to 670000 M⁻¹ s⁻¹.
Regarding B6, the Kd (usually the concentration at which binding is half-saturated) was 0.738 nM, the T½ came to 69 min, the koff worked out at 0.000167 s⁻¹ and the kon turned out to be 227000 M⁻¹ s⁻¹.
With B7, the Kd was 1.05 nM, the T½ was 41 min, the koff stood at 0.000279 s⁻¹ and the kon worked out at 266000 M⁻¹ s⁻¹.
Taken in the same sequence, the figures for B8 were 2.33 nM, 6 min, 0.00197 s⁻¹ and 844000 M⁻¹ s⁻¹.

Another assay addresses T2, hPRLR.mFc (soluble dimeric human PRLR). The experiment in a line: SPR Biacore, 25 C, mAb capture. How it is done: as §1
The molecule B1 showed a Kd of 0.192 nM, a T½ of 111 min, a koff of 0.000104 s⁻¹ and a kon of 542000 M⁻¹ s⁻¹.
The matching figures for B2: 0.332 nM, 132 min, 8.77e-05 s⁻¹ and 264000 M⁻¹ s⁻¹.
Taken in the same sequence, the figures for B3 were 0.331 nM, 153 min, 7.57e-05 s⁻¹ and 229000 M⁻¹ s⁻¹.
B4 had a Kd of 0.313 nM, a T½ of 122 min, a koff of 9.48e-05 s⁻¹ and a kon of 303000 M⁻¹ s⁻¹.
As to B5, binding was put at a Kd of 0.122 nM, the T½ worked out at 97 min, the koff worked out at 0.000119 s⁻¹ and the kon came out at 982000 M⁻¹ s⁻¹.
The molecule B6 yielded a Kd of 0.231 nM, a T½ of 190 min, a koff of 6.07e-05 s⁻¹ and a kon of 263000 M⁻¹ s⁻¹.
Taken in the same sequence, the figures for B7 were 0.225 nM, 162 min, 7.13e-05 s⁻¹ and 317000 M⁻¹ s⁻¹.
In turn, B8 had a Kd of 0.0545 nM, a T½ of 137 min, a koff of 8.41e-05 s⁻¹ and a kon of 1.54e+06 M⁻¹ s⁻¹.

The next assay concerns the target T3, hPRLR.mmh (soluble monomeric human PRLR). The experiment in a line: SPR Biacore, 25 C, mAb capture. As to the method: as §1
B1: the affinity, expressed as Kd, was 1.41 nM; the T½ is 14 min; the koff was 0.000799 s⁻¹; the kon was found to be 565000 M⁻¹ s⁻¹.
In turn, B2 gave a Kd of 1.43 nM, a T½ of 28 min, an off-rate constant (koff) of 0.000413 s⁻¹ and a kon of 288000 M⁻¹ s⁻¹.
Molecule B3 came in with a Kd of 1.41 nM, a T½ of 35 min, a koff of 0.000332 s⁻¹ and a kon of 235000 M⁻¹ s⁻¹.
The matching figures for B4: 2.45 nM, 15 min, 0.000794 s⁻¹ and 324000 M⁻¹ s⁻¹.
The matching figures for B5: 1.73 nM, 6 min, 0.00196 s⁻¹ and 1.13e+06 M⁻¹ s⁻¹.
Take B6: the Kd was 0.567 nM, the T½ turned out to be 68 min, the koff was 0.000171 s⁻¹ and the kon is 301000 M⁻¹ s⁻¹.
Taken in the same sequence, the figures for B7 were 0.685 nM, 47 min, 0.000247 s⁻¹ and 360000 M⁻¹ s⁻¹.
Taken in the same sequence, the figures for B8 were 1.52 nM, 7 min, 0.00177 s⁻¹ and 1.17e+06 M⁻¹ s⁻¹.
